Laboratory results as given in patent publication US20150266936A1.
Starred links: 1 amine or outer side, 2 acyl side, 3 side chain; linkers in the order of their positions; H or OH if unused. Non-standard residues stand in square brackets, D forms with d. No end group written: not given here. AO = 2-amino-3-(2-(aminooxy)acetamido)propanoic acid, O=C(CON[*:3])NC[C@H](N[*:1])C(=O)[*:2]

Experiments:
[1] = biological target: αvβ3, αvβ5, and α5β1 integrins on U87MG cells (human) (UniProt P06756); test: competition binding on U87MG cells, flow cytometry; competitor 0.25 nM Alexa488-labeled EETI 2.5F; 4 °C, 10 h
[2] = biological target: αvβ3, αvβ5, and α5β1 integrins on U87MG cells (human) (UniProt P06756); test: cell-based or functional assay
[3] = biological target: αvβ3, αvβ5, and α5β1 integrins on U87MG cells (human) (UniProt P06756); test: competition binding on U87MG cells, flow cytometry; competitor 5 nM Alexa488-labeled AgRP 7C; 4 °C, 10 h
[4] = biological target: αvβ3, αvβ5, and α5β1 integrins on U87MG cells (human) (UniProt P06756); test: ratio of IC50 values, competition binding on U87MG cells

Work on GCPRPRGDNPPLTCKQDSDCLAGCVCGPNGFCG (designed binder) [EETI 2.5F] yielded an IC50 [1] of 1.64 nM, an Adhesion EC50 (nM), U87MG cell adhesion to fibronectin [2] of 180 nM and an inhibition of U87MG proliferation, 10 nM, 72 h (AlamarBlue) [2] of 15%. It also gave an inhibition of U87MG proliferation, 100 nM, 72 h (AlamarBlue) [2] of 30%, an inhibition of U87MG proliferation, 500 nM, 24 h (AlamarBlue) [2] of 37% and an inhibition of U87MG proliferation, 500 nM, 48 h (AlamarBlue) [2] of 44%. It also gave an inhibition of U87MG proliferation, 500 nM, 72 h (AlamarBlue) [2] of 50% and an inhibition of U87MG proliferation, 1000 nM, 72 h (AlamarBlue) [2] of 60%.

GCVRLHESCLGQQVPCCDPAATCYCYGRGDNDLRCYCR (designed binder, not fully specified (bridges); cysteine pairing not given here) [AgRP 7C] was tested, and the IC50 [3] was 13 nM.

B1: AgRP 7C Dimer (designed binder)
chain: GCVRLHESCLGQQVPCCDPAATCYCYGRGDNDLRCYC[AO]
modifications: not fully specified (residue 38, bridges); ends and bridges not checked; also: homodimer: two copies joined by oxime-bonded dialdehyde linker at X38
Binder B1 has a fold increase of apparent binding affinity compared to the monomer [4] of 4 fold and an IC50 [3] of 3.2 nM.

B2: EETI 2.5F Dimer (designed binder)
chain: GCPRPRGDNPPLTC[AO]QDSDCLAGCVCGPNGFCG
modifications: not fully specified (residue 15, bridges); ends and bridges not checked; also: homodimer: two copies joined by oxime-bonded dialdehyde linker at X15
For B2, the fold increase of apparent binding affinity compared to the monomer [4] was 46 fold, the IC50 [1] was 0.036 nM and the Adhesion EC50 (nM), U87MG cell adhesion to fibronectin [2] was 8 nM. It also gave a fold more effective than the monomer in preventing U87MG cell adhesion [2] of 100 fold, a fold more potent than Cilengitide at inhibiting U87MG cell proliferation [2] of 100 fold and an inhibition of U87MG proliferation, 10 nM, 72 h (AlamarBlue) [2] of 28%. The inhibition of U87MG proliferation, 100 nM, 72 h (AlamarBlue) [2] was 52%, the inhibition of U87MG proliferation, 500 nM, 24 h (AlamarBlue) [2] was 53% and the inhibition of U87MG proliferation, 500 nM, 48 h (AlamarBlue) [2] was 68%. The inhibition of U87MG proliferation, 500 nM, 72 h (AlamarBlue) [2] was 69% and the inhibition of U87MG proliferation, 1000 nM, 72 h (AlamarBlue) [2] was 70%.

GCPRPRGDNPPLTC[AO]QDSDCLAGCVCGPNGFCG (designed binder, disulfide (positions not given here)) [EETI 2.5F_AO] was tested, and the IC50 [1] was 1.57 nM.
